Three molecules from patent US20240343811A1 (SHANDONG SIMCERE BIOPHARMACUTICAL, published 2024) can be followed below.

Residue numbers refer to the chain shown, from its start. Read-outs that look alike come from different tables or passages of the source.

In assay [1] the target is T1, Human CD16a (158F)-his (human).
T1 construct: entry holds ECD, AVI tag, linker and His tag
Briefly: SPR (Biacore), antibody captured on Protein A. The protocol: (§1) A sample buffer and a running buffer were HBS-EP+ (10 mM HEPES, 150 mM NaCl, 3 mM EDTA and 0.05% surfactant P20) (GE Healthcare; BR-1006-69). The flow-through cell was set to 25° C. The sample block was set to 16° C. Both were pretreated with the running buffer. In each cycle, an antibody to be detected was first captured with a Protein A chip, and then a single concentration of CD16 antigen protein was injected. The binding and dissociation processes of the antibody and the antigen protein were recorded, and finally Glycine pH 1.5 (GE Healthcare; BR-1003-54) was used to complete chip regeneration. Binding was measured by injecting different concentrations of recombinant human CD16-ECD his proteins in a solution for 240 s with a flow rate of 30 μL/min, wherein a total of 5 concentrations were prepared by using 200 nM as a starting concentration (see the detailed results for the actual concentration in the test) and performing a 1:1 dilution. The dissociation phase was monitored for up to 600 s and was triggered by switching from a sample solution to a running buffer. The surface was regenerated by washing with a 10 mM glycine solution (pH 1.5) for 30 s at a flow rate of 30 μL/min. Bulk refractive index difference was corrected by subtracting the response obtained from the goat anti-human Fc surface. Blank injection was also subtracted (=double reference). For calculation of apparent KD and other kinetic parameters, Langmuir 1:1 model was used.
(Surface plasmon resonance follows binding to a sensor surface in real time, without labels.)

Assay [2] deals with T2, human CD16a (158V), full length, on cells (human, UniProt P08637 17-254). Briefly: cell-based or functional assay.
T2 sequence (P08637 17-254 F176V limits assumed): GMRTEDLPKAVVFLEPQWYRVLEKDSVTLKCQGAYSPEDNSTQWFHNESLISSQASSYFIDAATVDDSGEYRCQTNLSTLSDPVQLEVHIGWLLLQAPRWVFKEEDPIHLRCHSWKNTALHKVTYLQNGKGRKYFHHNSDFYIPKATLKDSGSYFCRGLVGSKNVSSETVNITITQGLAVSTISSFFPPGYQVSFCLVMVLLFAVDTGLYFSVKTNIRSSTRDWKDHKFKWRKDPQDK
Assay [3] has as its target T3, human CD16b (NA1), full length, on FlpinCHO cells (human, UniProt O75015 17-200).
T3 construct: also called FlpinCHO-human CD16b (NA1)
T3 chain: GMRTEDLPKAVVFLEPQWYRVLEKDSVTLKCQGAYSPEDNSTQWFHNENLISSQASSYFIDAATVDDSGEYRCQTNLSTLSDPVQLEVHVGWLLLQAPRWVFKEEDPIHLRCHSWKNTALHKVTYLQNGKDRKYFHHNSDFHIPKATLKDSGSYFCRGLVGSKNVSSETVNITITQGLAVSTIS
Briefly: FACS on FlpinCHO cells. The procedure:
(§2) The required cells were scale-up cultured in a T-75 cell culture flask to the logarithmic growth phase. The medium was aspirated, and the cells were washed twice with a PBS buffer and then digested with trypsin. After the digestion was terminated, the cells were washed twice with the PBS buffer. The cells were counted, and then the cell pellet was resuspended with a [PBS+2% (w/w) BSA] blocking solution to 2×10⁶ cells/ml, and added to a 96-well FACS reaction plate at 50 μl/well. […] 50 μl/well of the antibody to be detected was added at different concentrations, and incubated on ice for 1 hour. […] The mixture was centrifuged and washed 5 times with PBS, and FACS (FACS Canto II, purchased from BD Company) was used for detection and result analysis. Data analysis was performed by software (CellQuest) to obtain the mean fluorescence intensity (MFI) of the cells. Then, software (GraphPad Prism8) was used for analysis, data fitting and EC50 value calculation.
(§3) The binding of an antibody to be detected to FlpinCHO-human CD16b cells was detected according to the method of Example 3.1.

Assay [4] addresses T4, human CD16b (NA2), full length, on FlpinCHO cells (human, UniProt O75015 17-200).
T4 construct: also called FlpinCHO-human CD16b (NA2)
T4 chain: T3 chain with R20S, N49S, D66N, V90I
In words: FACS on FlpinCHO cells. The protocol: as §2, §3

Assay [5] deals with T5, human CD16a (158F), full length, on FlpinCHO cells (human, UniProt P08637 17-254). Briefly: FACS on FlpinCHO cells. The procedure:
as §2
(§4) The binding of a humanized antibody to FlpinCHO-human CD16a cells was detected according to the method of Example 3.1.

Assay [6] deals with T2, human CD16a (158V), full length, on …. In words: FACS on FlpinCHO cells. The protocol: as §2, §4
The target is the same in assay [7]. Briefly: cell-based or functional assay. This is another data set of the same source.
The target in assay [8] is T5, human CD16a (158F), full length, on …. In words: FACS, biotinylated antibody. The protocol: as §2, with “The” for “The required cells were scale-up cultured in a T-75 cell culture flask to the logarithmic growth phase. The”
(§5) An antibody to be detected was labeled in advance according to the instructions of a biotin labeling kit (EZ-Link™ NHS-PEG4 Biotinylation Kit, purchased from Thermofisher Scientific, catalog number: 21455). […] Detection was performed according to the method of Example 3.1, wherein the biotinylated antibody was detected with fluorescein APC-labeled Streptavidin (High Concentration) (purchased from Biolegend, catalog number: 405243).
Background: Flow cytometry measures light scatter and fluorescence of single cells or particles in a stream.

For assay [9], the target named is T2, human CD16a (158V), full length, on …. Briefly: FACS, biotinylated antibody. The procedure:
as §2, with “The” for “The required cells were scale-up cultured in a T-75 cell culture flask to the logarithmic growth phase. The”
as §5

For assay [10], the target named is T6, CD16 on primary human NK cells (human, UniProt P08637 17-254).
T6 construct: whole, on cells; also called resting NK cells
T6 sequence (P08637 17-254): as the sequence (P08637 17-254 F176V limits assumed) above, with V160F counted along it
In words: FACS on human NK cells. The procedure:
as §2
The binding of an antibody to be detected to freshly prepared human NK cells (Milestone Biotechnologies, catalog number: PB56-N-Custom) was detected according to the method of Example 3.1.

The target in assay [11] is T5, human CD16a (158F), full length, on …. In words: FACS, biotinylated antibody, +10 mg/mL human immunoglobulin. The protocol: as §2, with “The” for “The required cells were scale-up cultured in a T-75 cell culture flask to the logarithmic growth phase. The”
as §5

Assay [12] addresses T2, human CD16a (158V), full length, on …. Described as above. The protocol: as §2, with “The” for “The required cells were scale-up cultured in a T-75 cell culture flask to the logarithmic growth phase. The”
as §5

Assay [13] has as its target T7, Human CD16a (158V)-his (human).
T7 construct: entry holds ECD, AVI tag, linker and His tag
In words: SPR (Biacore), antibody captured on Protein A. The procedure:
as §1

The target in assay [14] is T5, human CD16a (158F), full length, on …. Briefly: FACS on FlpinCHO cells. The procedure: as §2
This is another data set of the same source.

Assay [15] addresses T2, human CD16a (158V), full length, on …. Briefly: FACS on FlpinCHO cells. The protocol:
as §2
This is another data set of the same source.

Assay [16] addresses T3, human CD16b (NA1), full length, on …. Briefly: FACS on FlpinCHO cells. The procedure: as §2, §3
In assay [17] the target is T4, human CD16b (NA2), full length, on …. Briefly: FACS on FlpinCHO cells. The procedure: as §2, §3

T1 sequence (chain, as listed by the source limits assumed): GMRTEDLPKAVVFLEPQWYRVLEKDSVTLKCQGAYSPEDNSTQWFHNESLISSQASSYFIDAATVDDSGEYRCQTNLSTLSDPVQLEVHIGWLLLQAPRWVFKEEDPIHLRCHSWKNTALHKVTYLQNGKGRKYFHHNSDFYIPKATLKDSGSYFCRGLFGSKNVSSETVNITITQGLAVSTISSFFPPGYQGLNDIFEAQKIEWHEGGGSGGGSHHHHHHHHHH
T5 sequence (P08637 17-254 limits assumed): as the sequence (P08637 17-254 F176V limits assumed) above, with V160F counted along it
T7 sequence (chain, as listed by the source limits assumed): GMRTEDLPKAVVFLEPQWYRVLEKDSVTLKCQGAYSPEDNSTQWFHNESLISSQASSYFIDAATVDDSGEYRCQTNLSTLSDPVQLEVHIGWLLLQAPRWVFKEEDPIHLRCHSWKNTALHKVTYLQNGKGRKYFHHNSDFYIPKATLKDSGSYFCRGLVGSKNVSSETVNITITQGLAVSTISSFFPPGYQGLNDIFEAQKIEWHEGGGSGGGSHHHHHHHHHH

B1: VHH06-03 humanized VHH-Fc antibody (Fc fusion)
chain: EVQLVESGGGVVQPGGSLRLSCAASGSTWTTYAVRWYRQAPGKQREWVAFISVDGSTNYADSVKGRFTISRDNSKNTVYLQMNSLRAEDTADYICRVGGQYWGQGTMVTVSSEPKSSDKTHTCPPCPAPEEFGGPSVFLFPPKPKDTLMISRTPEVTCVVVAVSHEDPEVKFNWYVDGVEVHNAKTKPREEQYNSTYRVVSVLTVLHQDWLNGKEYKCKVSNKALPAPIEKTISKAKGQPREPQVYTLPPSREEMTKNQVSLTCLVKGFYPSDIAVEWESNGQPENNYKTTPPVLDSDGSFFLYSKLTVDKSRWQQGNVFSCSVMHEALHNHYTQKSLSLSPGK
Regarding B1, in assay [1], the dissociation constant Kd was 28700 pM, the dissociation rate constant (koff) was 0.00129 s⁻¹ and the kon worked out at 44800 M⁻¹ s⁻¹. For the same molecule, in [2], the “EC50, activation activity for Jurkat cell” value (“EC50, activation activity” for short) was 20 pM and the Maximum fluorescence value is 171000. For the same molecule, in assay [3], the midpoint of the response, the EC50, lay at 350 pM and the “Maximum mean fluorescence intensity” value worked out at 56900. Moreover, in assay [4], the “Maximum mean fluorescence intensity” value was determined as 174 and the binding result is listed as “no binding (tested: 100 nM)”. Moreover, in assay [5], the EC50 amounted to 470 pM and the “Maximum mean fluorescence intensity” value worked out at 9140. In addition, in [6], a half-maximal response (EC50) required 490 pM and the “Maximum mean fluorescence intensity” value was 8390.

B2: VHH10 VHH-Fc antibody (Fc fusion)
chain: QVQLVESGGGLVQAGGSLRLSCVGSSSTLTTYAVRWYRQAPGKQREWVAFISVDGSTNYPDSVKGRFIVSRDNAKNTVYLQMNSLKPEDTADYICRAGGQYWGQGTQVTVSSEPKSSDKTHTCPPCPAPEFEGGPSVFLFPPKPKDTLMISRTPEVTCVVVAVSHEDPEVKFNWYVDGVEVHNAKTKPREEQYNSTYRVVSVLTVLHQDWLNGKEYKCKVSNKALPAPIEKTISKAKGQPREPQVYTLPPSREEMTKNQVSLTCLVKGFYPSDIAVEWESNGQPENNYKTTPPVLDSDGSFFLYSKLTVDKSRWQQGNVFSCSVMHEALHNHYTQKSLSLSPGK
Regarding B2, the “EC50, activation activity” value in [7] came to 20 pM. The Maximum fluorescence value in [7] turned out to be 157000. Besides, the EC50 in [8] worked out at 310 pM; in [9] it was 420 pM; in assay [10], 450 pM; in assay [11], 1200 pM; in [12] it was 1390 pM; in assay [14] it was 440 pM. Moreover, the results for the 50% effective concentration (EC50) in [15] and in [16] were 630 pM and 340 pM, respectively. Moreover, the “Maximum mean fluorescence intensity” value worked out at 4690 in assay [8]; 6980 in assay [9]; 2450 in assay [10]; 6040 in assay [11]; 9200 in assay [12]; 5620 in assay [14]. The figures for the “Maximum mean fluorescence intensity” value in assay [15], in [16] and in assay [17] were 6480, 51400 and 140, respectively. Besides, the values for the Kd in [1] and in assay [13] were 39900 pM and 13600 pM, respectively. Besides, the results for the koff in [1] and in assay [13] were 0.00247 s⁻¹ and 0.00146 s⁻¹, respectively. Besides, the on-rate (kon) amounted to 61800 M⁻¹ s⁻¹ in assay [1] and 107000 M⁻¹ s⁻¹ in [13]. In addition, the binding result in [17] was “no binding (tested: 100 nM)”.

B3: VHH15 VHH-Fc antibody (Fc fusion)
chain: B2 chain with Q1E, G24A, S26T, S56N
As for B3, in assay [7], the “EC50, activation activity” value stood at 20 pM. The same molecule had a Maximum fluorescence value in assay [7] of 167000. In addition, the concentration giving a half-maximal response (EC50) in assay [8] was 400 pM; in assay [9] it was 490 pM; in [10], 740 pM; in [11], 1410 pM; in assay [12] it was 1410 pM; in assay [14], 440 pM. Moreover, the results for the EC50 in [15] and in [16] were 690 pM and 440 pM, respectively. Also, the “Maximum mean fluorescence intensity” value in assay [8] worked out at 5240; in assay [9], 7260; in [10], 2400; in assay [11] it was 6570; in assay [12], 9030; in assay [14], 5600. Besides, the “Maximum mean fluorescence intensity” value amounted to 6490 in assay [15], 52100 in assay [16] and 178 in [17]. Further, the figures for the Kd in [1] and in assay [13] were 42800 pM and 14100 pM, respectively. Moreover, the off-rate constant (koff) in [1] is 0.00273 s⁻¹; in assay [13], 0.0016 s⁻¹. For the same molecule, the kon in assay [1] amounted to 63800 M⁻¹ s⁻¹; in assay [13] it was 114000 M⁻¹ s⁻¹. Also, in [17], the binding result is reported as “no binding (tested: 100 nM)”.

As usually defined, the Kd is the equilibrium constant for the complex coming apart. A low value points to higher affinity. The term koff denotes the rate constant with which the complex falls apart. High values mean fast dissociation, low ones slow dissociation. As usually defined, the kon is the second-order rate constant of association. A higher kon goes with fast association. The EC50 is the concentration that produces a half-maximal response. A low value points to greater potency.
